Earlier results, collected in patent US20230355537A1, “PROMOTING TRAINED IMMUNITY WITH THERAPEUTIC NANOBIOLOGIC COMPOSITIONS” (Icahn School of Medicine at Mount Sinai, priority 2017, published 2023).

Experiments:
PD-1 = molecular target: T1, PD-1 (Homo sapiens, UniProt Q15116)
T1 construct: A phase II clinical trial in subjects with diffuse large B-cell lymphoma (DLBCL); host or cells: human trial subjects (endogenous PD-1 on their immune cells)

PD-L1 = molecular target: T2, PD-L1 (Homo sapiens, UniProt Q9NZQ7); details: in vivo
T2 construct: in subjects with advanced-stage NSCLC, melanoma, RCC, or ovarian cancer; host or cells: human trial subjects (endogenous PD-L1 on tumour and immune cells)
T2 sequence (Q9NZQ7 19-290): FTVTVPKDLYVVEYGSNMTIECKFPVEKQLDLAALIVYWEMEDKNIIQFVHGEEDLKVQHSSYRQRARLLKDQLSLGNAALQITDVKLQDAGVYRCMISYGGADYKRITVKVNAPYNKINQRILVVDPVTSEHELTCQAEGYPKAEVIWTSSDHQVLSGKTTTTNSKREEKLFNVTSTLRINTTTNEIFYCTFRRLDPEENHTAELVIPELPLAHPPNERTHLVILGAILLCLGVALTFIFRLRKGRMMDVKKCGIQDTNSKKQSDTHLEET

T1 sequence (Q15116 25-288): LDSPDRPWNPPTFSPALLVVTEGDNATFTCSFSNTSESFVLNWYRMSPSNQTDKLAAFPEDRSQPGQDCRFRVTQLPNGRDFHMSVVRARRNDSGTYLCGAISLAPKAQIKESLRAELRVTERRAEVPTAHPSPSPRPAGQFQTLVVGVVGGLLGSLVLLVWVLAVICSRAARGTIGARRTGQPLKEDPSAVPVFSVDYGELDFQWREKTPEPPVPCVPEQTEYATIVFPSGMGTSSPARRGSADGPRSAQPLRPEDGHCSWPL

Q: What does the source list for “CT-011: humanized IgGl monoclonal antibody against PD-I”?
A: subjects alive (PD-1; DLBCL, preliminary results): 82%; subjects progression-free at the end of the follow-up period (PD-1; DLBCL, preliminary results): 70%; activity of natural killer cells (PD-1; in vivo): augments

Q: With Medi 4736: anti-PD-LI antibody as the substance, how does the clinical activity (PD-L1) read?
A: Its clinical activity is “durable clinical activity”.
